B2: CENP-C_(1264-1411) (tag cleaved) (domain or fragment, Drosophila melanogaster, UniProt Q9VHP9 1264-1411, looked up)
chain: GPVVFSTPLRDEQEEASTKLMQWLRGVGDAPPSASMSDENASVSSANELIFCQVDGIDYAFYNTKEKAMLGYMRFKPYQKRSMKQAKVHPLKLLVQFGEFNVETLAVGEEKEVHSVLRVGDMIEIDRGTRYSIQNAIDKVSVLMCIRS

One series concerns the target T1, CENP-A-GFP-LacI (Drosophila melanogaster, UniProt Q9V6Q2 1-225).
T1 sequence (looked up): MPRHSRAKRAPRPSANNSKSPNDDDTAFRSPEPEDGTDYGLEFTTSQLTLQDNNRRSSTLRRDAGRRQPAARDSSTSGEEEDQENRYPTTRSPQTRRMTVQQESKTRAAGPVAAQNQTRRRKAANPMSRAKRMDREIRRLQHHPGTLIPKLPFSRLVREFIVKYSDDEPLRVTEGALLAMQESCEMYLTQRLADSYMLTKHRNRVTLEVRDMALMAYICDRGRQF
The series is described as follows: LacO/LacI tethering assay in cells.

The series “SEC-MALS” concerns the molecule itself. The series is described as follows: SEC-MALS.
In series [1] the target is B2. The series is described as follows: AUC.
Series [2] addresses T2, CENP-A_(101-225)–H4 heterodimer (Drosophila melanogaster, UniProt Q9V6Q2 101-225; P84040 2-103). The series is described as follows: pull-down.
The target in a further series is T3, His-CAL1_(1-160) (Drosophila melanogaster, UniProt Q9VEN2 1-160).
T3 sequence (looked up): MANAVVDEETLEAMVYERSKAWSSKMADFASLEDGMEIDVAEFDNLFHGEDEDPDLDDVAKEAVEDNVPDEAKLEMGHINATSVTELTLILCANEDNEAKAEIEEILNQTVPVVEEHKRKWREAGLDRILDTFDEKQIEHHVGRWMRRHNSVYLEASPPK
The series is described as follows: crystal structure.

The target in a further series is Histone H4 (Drosophila melanogaster, UniProt P84040 2-103). Briefly: crystal structure.
The target of series [3] is T2, CENP-A_(101-225)–H4 heterodimer. Briefly: SEC-MALS. (In general: In gel filtration, larger molecules generally elute earlier.)

B1: CAL1_(F43R)-V5 (natural protein, Drosophila melanogaster, UniProt Q9VEN2 1-979, looked up)
chain: MANAVVDEETLEAMVYERSKAWSSKMADFASLEDGMEIDVAERDNLFHGEDEDPDLDDVAKEAVEDNVPDEAKLEMGHINATSVTELTLILCANEDNEAKAEIEEILNQTVPVVEEHKRKWREAGLDRILDTFDEKQIEHHVGRWMRRHNSVYLEASPPKYLPPHHNSISDESDESMHSIDTARYIQQSRRRNAHMTNKNMTTIKMYRKHSHKRDELRAKYAYGDEQEHRHHMQAVLLRRRERERQLAYLASTPMQCVYSSGHHMRRKNLRKRRINSWMFDSASSSEEDTSFGGCDCHSCRRHYALSRSVYQSCPYGRGQREYHHRQMASRTMHTMRRQHTFDMEMDLRPRLPENECSCCNSDRLCSNVIHIANSSTEEWVVENRSNHLTQETQEKTRKQKHQPMDARKVSHQPVCSKGHEQKPLSSKATSVSKLVLSKEKYMQMFDSESSDEDNALAKKGLLCCSDKKKGMTFPTPNAAGKITHPTSSAKKAIRKEARPNGLAQIQEEGPTATNSPIESTYLPVAHMKSVSIDGSSGTSATFESPAKKAPKRGIRETSPLNGNELQQLISTIPIADEKASSLMEKVDNCIGRESFDDRNKDFMHMENSSTKTAVEKSTKQKRVSGKKSEIPKSIITNNEILEKNSTETLSEKQVAAKAKKQSVRKTGATGKPSTSRLKKSEKTKTTSSVTSTSKLEQVREEESDVSSEVLAKPKPQCSTTASILKQGGDGASNSEDDLQIALAMSKATYKEEQQKRKKTKREPSNKQPQSPAEKSMTVFNNQSVACNSTALANDTACYRVLPKRRGVKRAAAVSTTEEKTATNSSSSPTSSLEEMGSPTGGDPDCTVVTSTTGCEPPASERQEIPATIKITKRGILLHSPSAPEGASFTLTEQGLGKIIGERWARKYLKYHIGSRSFDSRHSVYYQPTPQLAAALSAPQDAQNIGNISGSSASDDDIFEQINRYGTVYSILENNSGDK
In the case of B1, the “fold reduction of the level co-localising with CENP-A, against CAL1 WT” value in the series with CENP-A-GFP-LacI came out at 3 fold.
Consider B2, for which, in “SEC-MALS”, the “stoichiometry N” value worked out at 2.

B3: CAL1_(841-979) (untagged) (domain or fragment, Drosophila melanogaster, UniProt Q9VEN2 841-979, looked up)
chain: GGDPDCTVVTSTTGCEPPASERQEIPATIKITKRGILLHSPSAPEGASFTLTEQGLGKIIGERWARKYLKYHIGSRSFDSRHSVYYQPTPQLAAALSAPQDAQNIGNISGSSASDDDIFEQINRYGTVYSILENNSGDK
With B3, the “stoichiometry N” value in series [1] worked out at 1 CAL1 per CENP-C dimer.

B4: His-CAL1_(1-160) F43R (domain or fragment)
chain: MANAVVDEETLEAMVYERSKAWSSKMADFASLEDGMEIDVAERDNLFHGEDEDPDLDDVAKEAVEDNVPDEAKLEMGHINATSVTELTLILCANEDNEAKAEIEEILNQTVPVVEEHKRKWREAGLDRILDTFDEKQIEHHVGRWMRRHNSVYLEASPPK
Consider B4, for which, in series [2], the binding result is “binds”.

B5: CENP-A_(101-225) (domain or fragment)
chain: QQESKTRAAGPVAAQNQTRRRKAANPMSRAKRMDREIRRLQHHPGTLIPKLPFSRLVREFIVKYSDDEPLRVTEGALLAMQESCEMYLTQRLADSYMLTKHRNRVTLEVRDMALMAYICDRGRQF
As for B5, the binding result with His-CAL1_(1-160) and with Histone H4 was “binds” throughout.
Take MANAVVDEETLEAMVYERSKAWSSKMADFASLEDGMEIDVAEFDNLFHGE (domain or fragment) [His-CAL1_(1-50)]: the “stoichiometry N” value in series [3] is 1 CAL1 per CENP-A/H4 heterodimer.

What is called stoichiometry N is the number of molecules, sites or subunits per partner or assembly.

(Values after paper doi:10.1101/723213 (bioRxiv, 2019).)
